± gives the standard deviation of the averaged measurements.
Test: total protein half-life in vivo (active degradation + dilution); higher = more stable protein
[1] = E. coli NCM3722 delta-clpP delta-lon delta-hslV, growth: N-lim chemostat, doubling time 6 h
[2] = E. coli NCM3722 delta-hslV, growth: N-lim chemostat, doubling time 6 h
[3] = E. coli NCM3722 delta-lon, growth: N-lim chemostat, doubling time 6 h
[4] = wild type E. coli NCM3722, growth: C-lim chemostat, doubling time 3 h
[5] = wild type E. coli NCM3722, growth: C-lim chemostat, doubling time 12 h
[6] = wild type E. coli NCM3722, growth: N-lim chemostat, doubling time 12 h
[7] = wild type E. coli NCM3722, growth: P-lim chemostat, doubling time 6 h
[8] = E. coli NCM3722 delta-smpB, growth: N-lim chemostat, doubling time 6 h
[9] = wild type E. coli NCM3722, growth: C-lim chemostat, doubling time 6 h
[10] = wild type E. coli NCM3722, growth: N-lim chemostat, doubling time 6 h
[11] = wild type E. coli NCM3722, growth: P-lim chemostat, doubling time 12 h
[12] = E. coli NCM3722 delta-clpP, growth: N-lim chemostat, doubling time 6 h

Sequence	total protein half-life in vivo [1]	total protein half-life in vivo [2]	total protein half-life in vivo [3]	total protein half-life in vivo [4]	total protein half-life in vivo [5]	total protein half-life in vivo [6]	total protein half-life in vivo [7]	total protein half-life in vivo [8]	total protein half-life in vivo [9]	total protein half-life in vivo [10]	total protein half-life in vivo [11]	total protein half-life in vivo [12]
MNKEQSADDPSVDLIRVKNMLNSTISMSYPDVVIACIEHKVSLEAFRAIEAALVKHDNNMKDYSLVVD	> 8 h	> 8 h	> 8 h	2.94 ± 0.043 h	9.95 h	10.8 ± 6 h	4.21 h	–	–	–	–	–
MNKFLFAAALIVSGLLVGCNQLTQYTITEQEINQSLAKHNNFSKDIGLPGVADAHIVLTNLTSQIGREEPNKVTLTGDANLDMNSLFGSQKATMKLKLKALPVFDKEKGAIFLKEMEVVDATVQPEKMQTVMQTLLPYLNQALRNYFNQQPAYVLREDGSQGEAMAKKLAKGIEVKPGEIVIPFTD [P0AB26]	–	6.63 ± 0.84 h	6.72 ± 0.38 h	3.55 ± 0.36 h	11.9 ± 1.5 h	13.4 ± 0.43 h	6.01 ± 0.25 h	6.38 ± 0.15 h	5.37 ± 0.43 h	5.75 ± 0.34 h	12.36 ± 0.048 h	–
MNKILLQCDNLCKRYQEGSVQTDVLHNVSFSVGEGEMMAIVGSSGSGKSTLLHLLGGLDTPTSGDVIFNGQPMSKLSSAAKAELRNQKLGFIYQFHHLLPDFTALENVAMPLLIGKKKPAEINSRALEMLKAVGLDHRANHRPSELSGGERQRVAIARALVNNPRLVLADEPTGNLDARNADSIFQLLGELNRLQGTAFLVVTHDLQLAKRMSRQLEMRDGRLTAELSLMGAE	6.92 h	–	6.32 ± 0.21 h	3.22 h	10.8 ± 0.94 h	13.1 ± 1.3 h	5.48 ± 0.27 h	–	6.42 ± 0.012 h	5.78 ± 0.77 h	–	6.37 ± 0.67 h
MNKNMAGILSAAAVLTMLAGCTAYDRTKDQFVQPVVKDVKKGMSRAQVAQIAGKPSSEVSMIHARGTCQTYILGQRDGKAETYFVALDDTGHVINSGYQTCAEYDTDPQAAK [P0ADB1]	5.54 ± 0.094 h	–	–	3.03 ± 0.22 h	10.4 ± 1.6 h	12.3 ± 2.4 h	5.73 ± 0.26 h	5.74 ± 0.22 h	6.14 ± 0.68 h	–	12.6 ± 0.59 h	5.7 ± 0.36 h
MNKSRQKELTRWLKQQSVISQRWLNISRLLGFVSGILIIAQAWFMARILQHMIMENIPREALLLPFTLLVLTFVLRAWVVWLRERVGYHAGQHIRFAIRRQVLDRLQQAGPAWIQGKPAGSWATLVLEQIDDMHDYYARYLPQMALAVSVPLLIVVAIFPSNWAAALILLGTAPLIPLFMALVGMGAADANRRNFLALARLSGHFLDRLRGMETLRIFGRGEAEIESIRSASEDFRQRTMEVLRLAFLSSGILEFFTSLSIALVAVYFGFSYLGELDFGHYDTGVTLAAGFLALILAPEFFQPLRDLGTFYHAKAQAVGAADSLKTFMETPLAHPQRGEAELASTDPVTIEAEELFITSPEGKTLAGPLNFTLPAGQRAVLVGRSGSGKSSLLNALSGFLSYQGSLRINGIELRDLSPESWRKHLSWVGQNPQLPAATLRDNVLLARPDASEQELQAALDNAWVSEFLPLLPQGVDTPVGDQAARLSVGQAQRVAVARALLNPCSLLLLDEPAASLDAHSEQRVMEALNAASLRQTTLMVTHQLEDLADWDVIWVMQDGRIIEQGRYAELSVAGGPFATLLAHRQEEI	–	5.94 ± 0.14 h	6.1322 ± 0.0016 h	3.54 ± 0.42 h	–	12.7 ± 1.1 h	6.33 ± 0.11 h	5.95 ± 0.69 h	5.88 ± 0.21 h	6.42 ± 0.35 h	11.8 ± 0.91 h	6.56 ± 0.17 h
MNKTAIALLALLASSASLAATPWQKITQPVPGSAQSIGSFSNGCIVGADTLPIQSEHYQVMRTDQRRYFGHPDLVMFIQRLSSQVSNLGMGTVLIGDMGMPAGGRFNGGHASHQTGLDVDIFLQLPKTRWTSAQLLRPQALDLVSRDGKHVVSTLWKPEIFSLIKLAAQDKDVTRIFVNPAIKQQLCLDAGTDRDWLRKVRPWFQHRAHMHVRLRCPADSLECEDQPLPPSGDGCGAELQSWFEPPKPGTTKPEKKTPPPLPPSCQALLDEHVI [P0C0T5]	–	0.831 h	–	0.792 h	–	–	–	–	–	–	–	–
MNKTLIAAAVAGIVLLASNAQAQTVPEGYQLQQVLMMSRHNLRAPLANNGSVLEQSTPNKWPEWDVPGGQLTTKGGVLEVYMGHYMREWLAEQGMVKSGECPPPYTVYAYANSLQRTVATAQFFITGAFPGCDIPVHHQEKMGTMDPTFNPVITDDSAAFSEQAVAAMEKELSKLQLTDSYQLLEKIVNYKDSPACKEKQQCSLVDGKNTFSAKYQQEPGVSGPLKVGNSLVDAFTLQYYEGFPMDQVAWGEIKSDQQWKVLSKLKNGYQDSLFTSPEVARNVAKPLVSYIDKALVTDRTSAPKITVLVGHDSNIASLLTALDFKPYQLHDQNERTPIGGKIVFQRWHDSKANRDLMKIEYVYQSAEQLRNADALTLQAPAQRVTLELSGCPIDADGFCPMDKFDSVLNEAVK	5.71 ± 0.47 h	6.81 ± 0.17 h	6.9 ± 0.04 h	3.51 ± 0.45 h	12 ± 1.7 h	11.1 ± 1.5 h	6.4 ± 1.7 h	5.96 ± 0.12 h	6.07 ± 0.17 h	6.05 ± 0.63 h	12.3 ± 1.5 h	–
MNKYLKYFSGTLVGLMLSTSAFAAAEYAVVLKTLSNPFWVDMKKGIEDEAKTLGVSVDIFASPSEGDFQSQLQLFEDLSNKNYKGIAFAPLSSVNLVMPVARAWKKGIYLVNLDEKIDMDNLKKAGGNVEAFVTTDNVAVGAKGASFIIDKLGAEGGEVAIIEGKAGNASGEARRNGATEAFKKASQIKLVASQPADWDRIKALDVATNVLQRNPNIKAIYCANDTMAMGVAQAVANAGKTGKVLVVGTDGIPEARKMVEAGQMTATVAQNPADIGATGLKLMVDAEKSGKVIPLDKAPEFKLVDSILVTQ	4 ± 0.15 h	5.783 ± 0.043 h	6.64 ± 0.52 h	3.15 ± 0.034 h	9.15 ± 0.44 h	12.3 ± 0.66 h	5.91 ± 0.37 h	5.82 ± 0.24 h	6.52 ± 2 h	5.9 ± 0.064 h	11.3 ± 0.52 h	5.04 ± 0.31 h
MNKYTINDITRASGGFAMLAVDQREAMRMMFAAAGAPAPVADSVLTDFKVNAAKALSPYASAILVDQQFCYRQVVEQNAIAKSCAMIVAADEFIPGNGIPVDSVVIDRKINPLQIKQDGGKALKLLVLWRSDEDAQQRLDMVKEFNELCHSHGLVSIIEPVVRPPRRGDKFDREQAIIDAAKELGDSGADLYKVEMPLYGKGPQQELLCASQRLNDHINMPWVILSSGVDEKLFPRAVRVAMTAGASGFLAGRAVWASVVGLPDNELMLRDVCAPKLQQLGDIVDEMMAKRR	5.2 ± 0.61 h	4.42 ± 0.41 h	5.52 ± 0.98 h	2.93 ± 0.18 h	8.63 ± 1.5 h	6.3 ± 0.93 h	5.05 ± 0.15 h	4.09 ± 0.52 h	6.51 ± 1.8 h	4.19 ± 0.58 h	10.2 ± 0.62 h	4.38 ± 0.96 h

Reference: the supplement of paper PMC11246515
